Where no end group is shown, it is not given here.
Key:
[1] = target: human angiotensin 2 type 1 receptor (human) (UniProt P30556); test: cell-based or functional assay
[2] = target: rat angiotensin 2 type 1 receptor (rat) (UniProt P25095); test: cell-based or functional assay
Chain of rat angiotensin 2 type 1 receptor (rat) (P25095 whole entry): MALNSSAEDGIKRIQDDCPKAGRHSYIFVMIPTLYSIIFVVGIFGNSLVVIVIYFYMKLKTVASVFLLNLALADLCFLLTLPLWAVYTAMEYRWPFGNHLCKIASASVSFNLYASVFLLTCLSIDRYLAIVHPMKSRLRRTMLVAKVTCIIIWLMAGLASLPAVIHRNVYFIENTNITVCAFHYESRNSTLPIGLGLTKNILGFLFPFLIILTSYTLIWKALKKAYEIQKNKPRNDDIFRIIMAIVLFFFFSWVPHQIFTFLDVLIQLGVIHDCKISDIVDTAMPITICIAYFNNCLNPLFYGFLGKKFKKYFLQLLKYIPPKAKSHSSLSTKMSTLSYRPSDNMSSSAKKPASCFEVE

Chain of human angiotensin 2 type 1 receptor (human) (P30556 whole entry): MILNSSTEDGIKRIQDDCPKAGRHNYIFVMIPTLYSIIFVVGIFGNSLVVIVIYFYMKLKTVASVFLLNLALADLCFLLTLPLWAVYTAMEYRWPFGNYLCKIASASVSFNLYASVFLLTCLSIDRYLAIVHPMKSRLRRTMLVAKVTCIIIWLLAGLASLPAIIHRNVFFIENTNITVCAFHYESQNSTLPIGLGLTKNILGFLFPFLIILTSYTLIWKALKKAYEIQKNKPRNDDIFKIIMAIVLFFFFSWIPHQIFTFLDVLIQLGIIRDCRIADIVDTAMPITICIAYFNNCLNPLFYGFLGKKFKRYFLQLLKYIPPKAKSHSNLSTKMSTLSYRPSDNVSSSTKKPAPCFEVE

Row | Molecule | b-arrestin2 Max [1] [%] | IP One EC50 [2] [nM] | IP One Max [2] [%] | IP One EC50 [1] [nM] | IP One Max [1] [%] | b-arrestin2 EC50 [1] [nM] | b-arrestin2 EC50 [2] [nM] | b-arrestin2 Max [2] [%]
1 | SEQ ID NO: 2 (Sar-Arg-Val-Ile-Ile-His-Pro-Ile-NH2) (peptide) | 24.9 | 360 | 33.8 | – | – | – | – | –
2 | SEQ ID NO: 5 (Sar-Arg-Val-Gly-Val-His-Pro-Gly-OH) (peptide) | 39.4 | 96 | 24.8 | 65 | 18.1 | 1600 | 1900 | 61.7
3 | SEQ ID NO: 66 (N-Me-Glu-Arg-Val-Tyr-Phe-His-Pro-NH2) (peptide) | 30.6 | > 10000 | – | > 10000 | – | 6700 | 10000 | 58.5
4 | SEQ ID NO: 64 (Glu-Arg-Val-Tyr-Phe-His-Pro-NH2) (peptide) | 20.4 | > 10000 | – | > 10000 | – | 1200 | 870 | 26.9
5 | SEQ ID NO: 84 (Sar-Arg-Val-Tyr-OMTh-His-Pro-D-Ala-OH) (peptide) | 50.5 | > 10000 | – | > 10000 | – | 32 | 16 | 80.6
6 | SEQ ID NO: 32 (Me2G-Arg-Val-Tyr-Ile-His-Pro-Ala-OH) (peptide) | 55.6 | 24 | 6.8 | – | – | 79 | 43 | 80.2
7 | SEQ ID NO: 29 (Sar-Arg-Val-OMTyr-Ile-His-Pro-Ala-OH) (peptide) | 43.3 | > 10000 | – | > 10000 | – | 590 | 200 | 64.8
8 | SEQ ID NO: 9 (Sar-Arg-Val-Tyr-Ile-His-Pro-Ala-OH) (peptide) | – | – | 9.5 | – | – | – | – | 74
9 | SEQ ID NO: 83 (Sar-Arg-Val-Tyr-NVA-His-Pro-D-Ala-OH) (peptide) | 34.3 | > 10000 | – | > 10000 | – | 200 | 50 | 70.2
10 | SEQ ID NO: 30 (Sar-Arg-Val-Tyr-OMTh-His-Pro-Ala-OH) (peptide) | 68.2 | > 10000 | – | > 10000 | – | 9.2 | 8.2 | 80.4
11 | SEQ ID NO: 27 (Sar-Arg-Val-Tyr-Ile-His-Pro-D-Ala-OH) (peptide) | – | > 10000 | – | – | – | – | 16 | 84.2
12 | RVYEHPA (N-terminal Sar; C-terminal acid) [SEQ ID NO: 20 (Sar-Arg-Val-Tyr-Glu-His-Pro-Ala-OH)] | – | > 10000 | – | > 10000 | – | > 10000 | 3600 | 86.6
13 | RVYYHPA (N-terminal Sar; C-terminal acid) [SEQ ID NO: 19 (Sar-Arg-Val-Tyr-Tyr-His-Pro-Ala-OH)] | 67.9 | > 10000 | – | > 10000 | – | 31 | 18 | 91.2
14 | VYIHPF (cyclic) [SEQ ID NO: 38 (Cyclo(Val-Tyr-Ile-His-Pro-Phe))] | 43.1 | 920 | 20.8 | > 10000 | – | 680 | 2500 | 66.4
15 | RVYRHPA (N-terminal Sar; C-terminal acid) [SEQ ID NO: 24 (Sar-Arg-Val-Tyr-Arg-His-Pro-Ala-OH)] | 61.3 | 7.4 | 15.1 | > 10000 | – | 480 | 63 | 74.1
16 | RVYEHPI (N-terminal Sar; C-terminal acid) [SEQ ID NO: 16 (Sar-Arg-Val-Tyr-Glu-His-Pro-Ile-OH)] | 56.9 | 92 | 24.4 | > 10000 | – | 880 | 140 | 76.9
17 | RVYYHPI (N-terminal Sar; C-terminal amide) [SEQ ID NO: 15 (Sar-Arg-Val-Tyr-Tyr-His-Pro-Ile-NH2)] | 44.3 | 77 | 51.1 | 250 | 19.3 | 820 | 230 | 62.1
18 | RVYIHPRVYIHPRVYIHP (cyclic) [SEQ ID NO: 36 (Cyclo(Arg-Val-Tyr-Ile-His-Pro-Arg-Val-Tyr-Ile-His-Pro-Arg-Val-Tyr-Ile-His-Pro))] | 39.5 | 100 | 19.2 | > 10000 | – | 1200 | 1900 | 32.8
19 | DRVYYHP-NH2 [SEQ ID NO: 57 (Asp-Arg-Val-Tyr-Tyr-His-Pro-NH2)] | 42.1 | 330 | 35.3 | 3.6 | 10 | 430 | 450 | 64.4
20 | RVYKHPA (N-terminal Sar; C-terminal acid) [SEQ ID NO: 23 (Sar-Arg-Val-Tyr-Lys-His-Pro-Ala-OH)] | 61.2 | 11 | 10.3 | > 10000 | – | 44 | 39 | 84.9
21 | RVYYHP (N-terminal Sar; C-terminal D-Phe) [SEQ ID NO: 28 (Sar-Arg-Val-Tyr-Tyr-His-Pro-D-Phe-OH)] | 82.9 | 64 | 24.6 | > 10000 | – | 20 | 19 | 91.4
22 | ARVYVHPA (N-methyl residue; C-terminal acid) [SEQ ID NO: 33 (NMAla-Arg-Val-Tyr-Val-His-Pro-Ala-OH)] | 54.9 | > 10000 | – | > 10000 | – | 40 | 31 | 86.9
23 | RVYIHP (N-terminal Sar; C-terminal norvaline) [SEQ ID NO: 35 (Sar-Arg-Val-Tyr-Ile-His-Pro-NVA-OH)] | 67.9 | 12 | 30.5 | 2.7 | 7.1 | 12 | 9.3 | 79.8
24 | RVYVHPA (N-terminal Me2Gly; C-terminal acid) [SEQ ID NO: 31 (Me2G-Arg-Val-Tyr-Val-His-Pro-Ala-OH)] | 58.1 | 13 | 6.2 | > 10000 | – | 100 | 37 | 75.9

Now from value to molecule:

Row | b-arrestin2 Max [1] [%] | IP One EC50 [2] [nM] | IP One Max [2] [%] | IP One EC50 [1] [nM] | IP One Max [1] [%] | b-arrestin2 EC50 [1] [nM] | b-arrestin2 EC50 [2] [nM] | b-arrestin2 Max [2] [%] | Molecule
25 | 37.8 | > 10000 | – | > 10000 | – | 2000 | 2800 | 67.3 | SEQ ID NO: 65 (N-Me-Asp-Arg-Val-Tyr-Phe-His-Pro-NH2) (peptide)
26 | – | – | 13.3 | – | – | – | – | 60.3 | SEQ ID NO: 10 (Sar-Arg-Val-Tyr-Ile-His-Pro-Ala-NH2) (peptide)
27 | 36.9 | 35 | 11.3 | > 10000 | – | 210 | 200 | 41.8 | SEQ ID NO: 8 (Sar-Arg-Val-Tyr-Val-His-Pro-Ala-NH2) (peptide)
28 | 38.3 | > 10000 | – | > 10000 | – | 320 | 130 | 60.6 | SEQ ID NO: 82 (NM-D-Ala-Arg-Val-Tyr-Ile-His-Pro-D-Ala-OH) (peptide)
29 | 12.1 | 59 | 21.9 | 110 | 14.1 | 920 | > 10000 | – | SEQ ID NO: 6 (Sar-Arg-Val-Gly-Val-His-Pro-Gly-NH2) (peptide)
30 | 57.9 | – | 14.1 | – | – | – | – | 77 | SEQ ID NO: 25 (Asp-Arg-Val-Tyr-Ile-His-Pro-Ala-OH) (peptide)
31 | 36.5 | 41 | 19.6 | > 10000 | – | 450 | 120 | 67.1 | SEQ ID NO: 3 (Sar-Arg-Val-Ile-Val-His-Pro-Ile-OH) (peptide)
32 | 47.3 | 8.2 | 14.6 | > 10000 | – | 80 | 65 | 71.9 | SEQ ID NO: 44 (NMAla-Arg-Val-Tyr-Ile-His-Pro-D-Ala-OH) (peptide)
33 | 54.5 | 250 | 5.2 | > 10000 | – | 270 | 27 | 74.3 | RVYHHPA (N-terminal Sar; C-terminal acid) [SEQ ID NO: 22 (Sar-Arg-Val-Tyr-His-His-Pro-Ala-OH)]
34 | 53 | > 10000 | – | > 10000 | – | 25 | 32 | 81.7 | ARVYIHPA (N-methyl residue; C-terminal acid) [SEQ ID NO: 34 (NMAla-Arg-Val-Tyr-Ile-His-Pro-Ala-OH)]
35 | 64.4 | > 10000 | – | > 10000 | – | 33 | 13 | 82.7 | RVYFHPA (N-terminal Sar; C-terminal acid) [SEQ ID NO: 21 (Sar-Arg-Val-Tyr-Phe-His-Pro-Ala-OH)]
36 | 51.9 | > 10000 | – | > 10000 | – | 75 | 38 | 77.3 | RVYYHP (N-terminal Sar; C-terminal amide) [SEQ ID NO: 26 (Sar-Arg-Val-Tyr-Tyr-His-Pro-NH2)]
37 | 62.3 | 240 | 14.7 | > 10000 | – | 1700 | 1900 | 60.7 | FVYIHPFVYIHPFVYIHP (cyclic) [SEQ ID NO: 37 (Cyclo(Phe-Val-Tyr-Ile-His-Pro-Phe-Val-Tyr-Ile-His-Pro-Phe-Val-Tyr-Ile-His-Pro))]
